# According to patent US11969458B2, “Formula of neuregulin preparation” (Zensun (Shanghai) Science & Technology, Co., Ltd., priority 2014, dated 2024):
# Assay: pH-stability profile of rhNRG-1 in pH 3 to 10 buffers and DI-water (RP-HPLC, SDS-PAGE)
# Assay type: physicochemical
# Conditions: for T90: time to degrade 10% of the initial concentration; for Rate of degradation: zero order, linear regression slope
# Protocol: 2.1 Develop a RP-HPLC Method to Determine the Purity of rhNRG-1 Drug Substance.
# RhNRG-1, batch 201204001, which contains 1.24 mg/mL rhNRG-1, 20 mM phosphate buffer and 0.5M NaCl, pH 5.5 (“API”) was used for the preparation of standard solution for all HPLC analysis.
# In a 15 mL plastic tube, add the API and DI-water or a New Buffer. Mix into a solution containing 0.25 mg/mL rhNRG-1, 10 mM New Buffer, 4 mM phosphate (from the API) and 0.1 M NaCl (from the API).
# For 40° C., test by SDS-PAGE after 10 days. Destain I (45% water, 45% methanol, 10% acetic acid, freshly made); 0.1% Coomasic Blue stain; The running gel (12%-15%) serves to separate individual polypeptides into discrete bands.
# For 40° C., remove 150 μL and test by HPLC after 28.5, 49 and 77 hr.
# For each Cone-vs-time profile, a linear regression analysis was performed and the slope of the regression equation was used to represent the rate of degradation in mg/mL/hr assuming zero order kinetics.
# At each pH (3 to 8) and temperature, the estimated degradation rate and T90 (time to degrade 10% of the initial concentration or 0.025 mg/mL) are provided as follow (Table 10): […]
# [1] = pH 5.63 (No New Buffer added), 40° C.
# [2] = pH 5.63 (No New Buffer added), 60° C.
molecule,measurement,setting,value
"rhNRG-1: proteins or peptides which consist of amino acid sequence of SEQ ID NO: 2 (protein, listed as Homo sapiens) SHLVKCAEKEKTFCVNGGECFMVKDLSNPSRYLCKCPNEFTGDRCQNYVMASFYKAEELYQ",T90 at the lower pH relative to the one in its original buffer,"lower pH (3.2) vs original buffer (pH 5.5, as is)",about 20 ×
same,T90 at the lower pH relative to the one at pH 4.2,lower pH (3.2) vs pH 4.2,about 2 ×
same,pH of the best stability observed,"pH 3 to 8 study, lowest pH",3.2
same,stability in solution depending on pH,pH 3 to 10,more stable in acid solution (PH 3.0 to 7.0) than in basic solution (PH 8.0 to 10.0)
same,% over initial conc.,"pH 3.19 (Sodium phosphate), 40° C., 28.5 hr",97%
same,% over initial conc.,"pH 3.19 (Sodium phosphate), 40° C., 49 hr",97%
same,% over initial conc.,"pH 3.19 (Sodium phosphate), 40° C., 77 hr",96%
same,% over initial conc.,"pH 3.19 (Sodium phosphate), 60° C., 7.5 hr",98%
same,% over initial conc.,"pH 3.19 (Sodium phosphate), 60° C., 24 hr",93%
same,% over initial conc.,"pH 3.19 (Sodium phosphate), 60° C., 48 hr",89%
same,% over initial conc.,"pH 3.19 (Sodium phosphate), 60° C., 65 hr",82%
same,% over initial conc.,"pH 3.19 (Sodium phosphate), 60° C., 77 hr",72%
same,Initial Conc,pH 3.19 (Sodium phosphate),0.241 mg/mL
same,T90,"pH 3.19, 40° C.",10.4 days
same,Rate of degradation,"pH 3.19, 40° C.",0.0001 mg/mL/h
same,T90,"pH 3.19, 60° C.",1.7 days
same,Rate of degradation,"pH 3.19, 60° C.",0.0006 mg/mL/h
same,% over initial conc.,"pH 4.17 (Sodium acetate), 40° C., 28.5 hr",97%
same,% over initial conc.,"pH 4.17 (Sodium acetate), 40° C., 49 hr",97%
same,% over initial conc.,"pH 4.17 (Sodium acetate), 40° C., 77 hr",93%
same,% over initial conc.,"pH 4.17 (Sodium acetate), 60° C., 7.5 hr",99%
same,% over initial conc.,"pH 4.17 (Sodium acetate), 60° C., 24 hr",93%
same,% over initial conc.,"pH 4.17 (Sodium acetate), 60° C., 48 hr",91%
same,% over initial conc.,"pH 4.17 (Sodium acetate), 60° C., 65 hr",84%
same,% over initial conc.,"pH 4.17 (Sodium acetate), 60° C., 77 hr",78%
same,Initial Conc,pH 4.17 (Sodium acetate),0.247 mg/mL
same,T90,"pH 4.17, 40° C.",5.2 days
same,Rate of degradation,"pH 4.17, 40° C.",0.0002 mg/mL/h
same,T90,"pH 4.17, 60° C.",1.7 days
same,Rate of degradation,"pH 4.17, 60° C.",0.0006 mg/mL/h
same,% over initial conc.,"pH 5.08 (Sodium acetate), 40° C., 28.5 hr",94%
same,% over initial conc.,"pH 5.08 (Sodium acetate), 40° C., 49 hr",94%
same,% over initial conc.,"pH 5.08 (Sodium acetate), 40° C., 77 hr",86%
same,% over initial conc.,"pH 5.08 (Sodium acetate), 60° C., 7.5 hr",98%
same,% over initial conc.,"pH 5.08 (Sodium acetate), 60° C., 24 hr",92%
same,% over initial conc.,"pH 5.08 (Sodium acetate), 60° C., 48 hr",93%
same,% over initial conc.,"pH 5.08 (Sodium acetate), 60° C., 65 hr",82%
same,% over initial conc.,"pH 5.08 (Sodium acetate), 60° C., 77 hr",82%
same,Initial Conc,pH 5.08 (Sodium acetate),0.242 mg/mL
same,T90,"pH 5.08, 40° C.",2.6 days
same,Rate of degradation,"pH 5.08, 40° C.",0.0004 mg/mL/h
same,T90,"pH 5.08, 60° C.",1.7 days
same,Rate of degradation,"pH 5.08, 60° C.",0.0006 mg/mL/h
same,% over initial conc.,"pH 5.47 (Histidine), 60° C., 7.5 hr",95%
same,% over initial conc.,"pH 5.47 (Histidine), 60° C., 24 hr",92%
same,% over initial conc.,"pH 5.47 (Histidine), 60° C., 48 hr",86%
same,% over initial conc.,"pH 5.47 (Histidine), 60° C., 65 hr",79%
same,% over initial conc.,"pH 5.47 (Histidine), 60° C., 77 hr",79%
same,Initial Conc,pH 5.47 (Histidine),0.248 mg/mL
same,T90,"pH 5.47, 60° C.",1.5 days
same,Rate of degradation,"pH 5.47, 60° C.",0.0007 mg/mL/h
same,% over initial conc.,"pH 5.63 (No New Buffer added), 40° C., 28.5 hr",92%
same,% over initial conc.,"pH 5.63 (No New Buffer added), 40° C., 49 hr",91%
same,% over initial conc.,"pH 5.63 (No New Buffer added), 40° C., 77 hr",38%
same,T90,[1],0.5 days
same,Rate of degradation,[1],0.0019 mg/mL/h
same,% over initial conc.,"pH 5.63 (No New Buffer added), 60° C., 7.5 hr",95%
same,% over initial conc.,"pH 5.63 (No New Buffer added), 60° C., 24 hr",84%
same,% over initial conc.,"pH 5.63 (No New Buffer added), 60° C., 48 hr",82%
same,% over initial conc.,"pH 5.63 (No New Buffer added), 60° C., 65 hr",69%
same,% over initial conc.,"pH 5.63 (No New Buffer added), 60° C., 77 hr",64%
same,T90,[2],1.0 days
same,Rate of degradation,[2],0.001 mg/mL/h
same,Initial Conc,pH 5.63 (No New Buffer added),0.251 mg/mL
same,% over initial conc.,"pH 6.02 (Sodium citrate), 40° C., 28.5 hr",94%
same,% over initial conc.,"pH 6.02 (Sodium citrate), 40° C., 49 hr",94%
same,% over initial conc.,"pH 6.02 (Sodium citrate), 40° C., 77 hr",86%
same,% over initial conc.,"pH 6.02 (Sodium citrate), 60° C., 7.5 hr",95%
same,% over initial conc.,"pH 6.02 (Sodium citrate), 60° C., 24 hr",88%
same,% over initial conc.,"pH 6.02 (Sodium citrate), 60° C., 48 hr",85%
same,% over initial conc.,"pH 6.02 (Sodium citrate), 60° C., 65 hr",72%
same,% over initial conc.,"pH 6.02 (Sodium citrate), 60° C., 77 hr",72%
same,Initial Conc,pH 6.02 (Sodium citrate),0.251 mg/mL
same,T90,"pH 6.02, 40° C.",2.6 days
same,Rate of degradation,"pH 6.02, 40° C.",0.0004 mg/mL/h
same,T90,"pH 6.02, 60° C.",1.2 days
same,Rate of degradation,"pH 6.02, 60° C.",0.0009 mg/mL/h
same,% over initial conc.,"pH 7.00 (Sodium phosphate), 40° C., 28.5 hr",92%
same,% over initial conc.,"pH 7.00 (Sodium phosphate), 40° C., 49 hr",87%
same,% over initial conc.,"pH 7.00 (Sodium phosphate), 40° C., 77 hr",82%
same,% over initial conc.,"pH 7.00 (Sodium phosphate), 60° C., 7.5 hr",90%
same,% over initial conc.,"pH 7.00 (Sodium phosphate), 60° C., 24 hr",76%
same,% over initial conc.,"pH 7.00 (Sodium phosphate), 60° C., 48 hr",65%
same,Initial Conc,pH 7.00 (Sodium phosphate),0.251 mg/mL
same,T90,"pH 7.00, 40° C.",1.7 days
same,Rate of degradation,"pH 7.00, 40° C.",0.0006 mg/mL/h
same,T90,"pH 7.00, 60° C.",0.7 days
same,Rate of degradation,"pH 7.00, 60° C.",0.0015 mg/mL/h
same,% over initial conc.,"pH 8.07 (Sodium bicarbonate), 40° C., 28.5 hr",89%
same,% over initial conc.,"pH 8.07 (Sodium bicarbonate), 40° C., 49 hr",83%
same,% over initial conc.,"pH 8.07 (Sodium bicarbonate), 40° C., 77 hr",68%
same,% over initial conc.,"pH 8.07 (Sodium bicarbonate), 60° C., 7.5 hr",68%
same,% over initial conc.,"pH 8.07 (Sodium bicarbonate), 60° C., 24 hr",4%
same,Initial Conc,pH 8.07 (Sodium bicarbonate),0.253 mg/mL
same,T90,"pH 8.07, 40° C.",1.0 days
same,Rate of degradation,"pH 8.07, 40° C.",0.001 mg/mL/h
same,T90,"pH 8.07, 60° C.",0.2 days
same,Rate of degradation,"pH 8.07, 60° C.",0.0061 mg/mL/h
